# Measurements reported in article PMC10397247.
# T1: 4H370-bH
# T1 chain: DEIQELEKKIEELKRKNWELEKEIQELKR
# T2: 4H949-bA
# T2 chain: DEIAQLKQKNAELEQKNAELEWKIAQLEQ
# T3: 4H3354-bH
# T3 chain: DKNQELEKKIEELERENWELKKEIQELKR
# T4: 4H3112-bH
# T4 chain: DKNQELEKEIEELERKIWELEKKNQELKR
# T5: 4H754-bH
# T5 chain: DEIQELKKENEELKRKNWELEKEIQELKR
# T6: 4H2576-bH
# T6 chain: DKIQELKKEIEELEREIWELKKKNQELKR
# T7: 4H2667-bH
# T7 chain: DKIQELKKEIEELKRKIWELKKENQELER
# T8: 4H918-bH
# T8 chain: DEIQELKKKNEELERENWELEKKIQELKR
# T9: 4H1446-bH
# T9 chain: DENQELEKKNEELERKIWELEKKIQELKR
# T10: 4H1828-bH
# T10 chain: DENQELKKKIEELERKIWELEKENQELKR
# T11: 4H338-bH
# T11 chain: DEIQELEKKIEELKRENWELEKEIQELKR
# T12: 4H967-bH
# T12 chain: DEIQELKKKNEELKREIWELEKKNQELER
# T13: 4H2442-bH
# T13 chain: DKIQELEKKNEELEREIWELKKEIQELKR
# T14: 4H3855-bH
# T14 chain: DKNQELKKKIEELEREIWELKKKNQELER
# T15: 4H3185-bH
# T15 chain: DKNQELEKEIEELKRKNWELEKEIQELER
# T16: 4H2610-bH
# T16 chain: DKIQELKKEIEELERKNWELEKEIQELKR
# T17: 4H568-bH
# T17 chain: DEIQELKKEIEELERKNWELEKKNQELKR
# T18: 4H908-bH
# T18 chain: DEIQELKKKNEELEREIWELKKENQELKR
# T19: 4H797-bH
# T19 chain: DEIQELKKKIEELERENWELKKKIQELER
# T20: 4H454-bH
# T20 chain: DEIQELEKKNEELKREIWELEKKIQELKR
# T21: 4H1845-bH
# T21 chain: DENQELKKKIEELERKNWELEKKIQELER
# T22: 4H2618-bH
# T22 chain: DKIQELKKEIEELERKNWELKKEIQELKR
# T23: 4H4001-bH
# T23 chain: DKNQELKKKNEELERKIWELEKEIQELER
# T24: 4H3843-bH
# T24 chain: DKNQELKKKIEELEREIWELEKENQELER
# T25: 4H4001-bA
# T25 chain: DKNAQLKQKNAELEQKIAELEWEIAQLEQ
# T26: 4H3427-bH
# T26 chain: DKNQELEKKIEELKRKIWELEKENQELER
# T27: 4H717-bH
# T27 chain: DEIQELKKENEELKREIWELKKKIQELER
# T28: 4H3189-bH
# T28 chain: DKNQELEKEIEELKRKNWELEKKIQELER
# T29: 4H72-bH
# T29 chain: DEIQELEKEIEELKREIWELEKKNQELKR
# T30: 4H607-bA
# T30 chain: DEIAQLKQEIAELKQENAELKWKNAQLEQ
# T31: 4H687-bH
# T31 chain: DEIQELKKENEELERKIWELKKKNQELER
# T32: 4H2697-bH
# T32 chain: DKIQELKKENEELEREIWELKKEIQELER
# T33: 4H3606-bH
# T33 chain: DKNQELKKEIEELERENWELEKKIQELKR
# T34: 4H607-bH
# T34 chain: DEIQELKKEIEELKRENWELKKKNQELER
# T35: 4H331-bH
# T35 chain: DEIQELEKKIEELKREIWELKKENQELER
# T36: 4H3782-bH
# T36 chain: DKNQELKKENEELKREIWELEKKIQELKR
# T37: 4H883-bH
# T37 chain: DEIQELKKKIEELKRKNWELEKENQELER
# T38: 4H2729-bH
# T38 chain: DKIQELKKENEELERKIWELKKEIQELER
# T39: 4H462-bH
# T39 chain: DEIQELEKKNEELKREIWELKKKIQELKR
# T40: 4H953-bH
# T40 chain: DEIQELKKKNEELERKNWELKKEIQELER
# T41: 4H3297-bN
# T41 chain: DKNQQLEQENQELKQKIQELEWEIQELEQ
# T42: 4H2673-bA
# T42 chain: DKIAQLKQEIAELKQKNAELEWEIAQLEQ
# T43: 4H342-bA
# T43 chain: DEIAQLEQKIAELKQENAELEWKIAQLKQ
# T44: 4H2944-bA
# T44 chain: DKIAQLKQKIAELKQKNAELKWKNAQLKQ
# T45: 4H491-bA
# T45 chain: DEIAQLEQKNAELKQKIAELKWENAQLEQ
# T46: 4H2883-bA
# T46 chain: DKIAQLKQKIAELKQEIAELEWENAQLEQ
# T47: 4H48-bA
# T47 chain: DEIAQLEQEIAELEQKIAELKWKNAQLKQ
# T48: 4H2937-bA
# T48 chain: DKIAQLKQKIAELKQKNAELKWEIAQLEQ
# T49: 4H342-bN
# T49 chain: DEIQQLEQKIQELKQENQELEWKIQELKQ
# T50: 4H491-bN
# T50 chain: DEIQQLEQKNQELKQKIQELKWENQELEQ
# T51: 4H2937-bN
# T51 chain: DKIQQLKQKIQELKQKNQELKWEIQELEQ
# T52: 4H48-bN
# T52 chain: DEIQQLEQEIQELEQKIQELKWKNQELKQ
# T53: 4H2944-bN
# T53 chain: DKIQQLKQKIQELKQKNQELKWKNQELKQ
# T54: 4H2883-bN
# T54 chain: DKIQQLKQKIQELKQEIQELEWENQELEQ
# Legend:
# Assay in all cases: two-hybrid library CCNG1;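 further: natural log of median RNA to DNA barcode read ratio; higher means stronger binding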
# [1] = target: T1, 4H370-bH
# [2] = target: T2, 4H949-bA
# [3] = target: T3, 4H3354-bH
# [4] = target: T4, 4H3112-bH
# [5] = target: T5, 4H754-bH
# [6] = target: T6, 4H2576-bH
# [7] = target: T7, 4H2667-bH
# [8] = target: T8, 4H918-bH
# [9] = target: T9, 4H1446-bH
# [10] = target: T10, 4H1828-bH
# [11] = target: T11, 4H338-bH
# [12] = target: T12, 4H967-bH
# [13] = target: T13, 4H2442-bH
# [14] = target: T14, 4H3855-bH
# [15] = target: T15, 4H3185-bH
# [16] = target: T16, 4H2610-bH
# [17] = target: T17, 4H568-bH
# [18] = target: T18, 4H908-bH
# [19] = target: T19, 4H797-bH
# [20] = target: T20, 4H454-bH
# [21] = target: T21, 4H1845-bH
# [22] = target: T22, 4H2618-bH
# [23] = target: T23, 4H4001-bH
# [24] = target: T24, 4H3843-bH
# [25] = target: T25, 4H4001-bA
# [26] = target: T26, 4H3427-bH
# [27] = target: T27, 4H717-bH
# [28] = target: T28, 4H3189-bH
# [29] = target: T29, 4H72-bH
# [30] = target: T30, 4H607-bA
# [31] = target: T31, 4H687-bH
# [32] = target: T32, 4H2697-bH
# [33] = target: T33, 4H3606-bH
# [34] = target: T34, 4H607-bH
# [35] = target: T35, 4H331-bH
# [36] = target: T36, 4H3782-bH
# [37] = target: T37, 4H883-bH
# [38] = target: T38, 4H2729-bH
# [39] = target: T39, 4H462-bH
# [40] = target: T40, 4H953-bH
# [41] = target: T41, 4H3297-bN
# [42] = target: T42, 4H2673-bA
# [43] = target: T43, 4H342-bA
# [44] = target: T44, 4H2944-bA
# [45] = target: T45, 4H491-bA
# [46] = target: T46, 4H2883-bA
# [47] = target: T47, 4H48-bA
# [48] = target: T48, 4H2937-bA
# [49] = target: T49, 4H342-bN
# [50] = target: T50, 4H491-bN
# [51] = target: T51, 4H2937-bN
# [52] = target: T52, 4H48-bN
# [53] = target: T53, 4H2944-bN
# [54] = target: T54, 4H2883-bN
binder,measurement,setting,value
DENQELEKKNEELERKIWELEKKIQELKR [4H1446-bH],interaction score,[1],-0.404
same,interaction score,[2],-2.01
same,interaction score,[3],0.818
same,interaction score,[4],-0.67
same,interaction score,[5],0.109
same,interaction score,[6],0.59
same,interaction score,[7],-0.551
same,interaction score,[8],-1.41
same,interaction score,[9],0.821
same,interaction score,[10],0.624
same,interaction score,[11],1.17
same,interaction score,[12],0.346
same,interaction score,[13],0.731
same,interaction score,[14],0.34
same,interaction score,[15],0.0116
same,interaction score,[16],0.669
same,interaction score,[17],-2.02
same,interaction score,[18],-0.161
same,interaction score,[19],-0.466
same,interaction score,[20],0.981
same,interaction score,[21],0.192
same,interaction score,[22],-0.314
same,interaction score,[23],1.24
same,interaction score,[24],1.3
same,interaction score,[25],2.32
same,interaction score,[26],0.933
same,interaction score,[27],-0.635
same,interaction score,[28],-1.86
same,interaction score,[29],-0.157
same,interaction score,[30],0.727
same,interaction score,[31],0.347
same,interaction score,[32],1.08
same,interaction score,[33],-0.704
same,interaction score,[34],-0.622
same,interaction score,[35],1.32
same,interaction score,[36],0.741
same,interaction score,[37],0.0186
same,interaction score,[38],0.679
same,interaction score,[39],0.0836
same,interaction score,[40],-0.325
DENQELKKKIEELERKIWELEKENQELKR [4H1828-bH],interaction score,[3],0.672
same,interaction score,[4],0.767
same,interaction score,[5],0.147
same,interaction score,[6],-1.69
same,interaction score,[7],1.08
same,interaction score,[8],0.157
same,interaction score,[41],-1.01
same,interaction score,[42],-3.95
same,interaction score,[10],0.57
same,interaction score,[11],1.16
same,interaction score,[12],-0.867
same,interaction score,[13],0.0564
same,interaction score,[14],0.0964
same,interaction score,[15],-0.478
same,interaction score,[17],-1.34
same,interaction score,[18],-0.285
same,interaction score,[19],0.474
same,interaction score,[20],0.741
same,interaction score,[21],-0.21
same,interaction score,[22],0.369
same,interaction score,[23],0.309
same,interaction score,[26],0.362
same,interaction score,[27],0.163
same,interaction score,[29],0.102
same,interaction score,[31],-0.438
same,interaction score,[34],-2.38
same,interaction score,[35],-0.37
same,interaction score,[36],0.484
same,interaction score,[37],0.204
same,interaction score,[38],-0.147
same,interaction score,[40],-0.675
DKIAQLKQKIAELKQEIAELEWENAQLEQ [4H2883-bA],interaction score,[43],-0.134
same,interaction score,[44],1.15
same,interaction score,[45],-0.886
same,interaction score,[46],0.521
same,interaction score,[47],1.3
same,interaction score,[48],0.793
DKIQQLKQKIQELKQEIQELEWENQELEQ [4H2883-bN],interaction score,[49],-1.84
same,interaction score,[50],-0.669
same,interaction score,[51],-1.33
same,interaction score,[52],2
same,interaction score,[53],0.237
same,interaction score,[54],0.96
